In publication doi:10.1101/848226:

Target: mCherry-CARACB(G15V) (barley (Hordeum vulgare))
Test: FRET or BRET

GFP-RIC157 (natural protein)
GFP lifetime: 2.2 ns
